Reference: US20220162583

Columns and labels:
Test in all cases: cell_activity
[1] = tested on: atp8 mito-nickase left TALE-FokI; details: nearly 30%; with nd5 nickase
[2] = tested on: nd5 mito-nickase left TALE-FokI; details: nearly 30%; with atp8 nickase
[3] = tested on: nd5 mito-nickase right TALE-FokI; details: nearly 30%; with atp8 nickase
[4] = tested on: nd4 mitoTALE nuclease right; details: with nd5 and atp8 nickases; deletions also with nuclease alone
[5] = tested on: nd4 mito-nickase (2) left TALE-FokI; details: zebrafish embryos; both nd4 nickase pairs co-injected
[6] = tested on: nd4 mitoTALE nuclease left; details: with nd5 and atp8 nickases; deletions also with nuclease alone
[7] = tested on: atp8 mito-nickase right TALE-FokI; details: nearly 30%; with nd5 nickase
[8] = tested on: nd4 mito-nickase (1) right TALE-FokI; details: zebrafish embryos; both nd4 nickase pairs co-injected
[9] = tested on: nd4 mito-nickase (2) right TALE-FokI; details: zebrafish embryos; both nd4 nickase pairs co-injected
[10] = tested on: nd4 mito-nickase (1) left TALE-FokI; details: zebrafish embryos; both nd4 nickase pairs co-injected

TAGGTTGAATGTGAT (double strand) [atp8 nickase left site]
activity (% embryos with deletion) [1]: 30

GCTAGATGTGGTTGG (double strand) [nd5 nickase left site]
activity (% embryos with deletion) [2]: 30

AGGGCTAATGATAGT (double strand) [nd5 nickase right site]
activity (% embryos with deletion) [3]: 30

TATATTCGAAGCTAC (double strand) [nd4 nuclease right site]
activity (% embryos with deletion) [4]: > 90

ACGAGTTAGAAGCAT (double strand) [nd4 nickase (2) left site]
activity (% embryos with deletion) [5]: 50

CGGGTAATAATGATT (double strand) [nd4 nuclease left site]
activity (% embryos with deletion) [6]: > 90

TCCTTACTATTATTC (double strand) [atp8 nickase right site]
activity (% embryos with deletion) [7]: 30

TTACACCTAATTCCT (double strand) [nd4 nickase (1) right site]
activity (% embryos with deletion) [8]: 50

GACTAAAATGAACCT (double strand) [nd4 nickase (2) right site]
activity (% embryos with deletion) [9]: 50

AAGTTCTGGTTTTAA (double strand) [nd4 nickase (1) left site]
activity (% embryos with deletion) [10]: 50
